# In patent US9340616B2, “Methods and compositions for heptameric targeting ligands” (The University of North Carolina at Chapel Hill, priority 2011, dated 2016):
# B1: PSMA monomer: PSMA-binding peptide WQPDTAHHWATL on a truncated, nonfunctional Sm1 domain lacking the C-terminal 23 residues (protein)
# chain: MWQPDTAHHWATLGPQPQPKPQPKPEPEPQPQGGMPPRPLDVLNRSLKSPVIVRLKGGREFRGTLDGYDIHMNLVLLDAEEIQNGEVVHHHHHH
# B2: PSMA-Heptamer: AF-Sm1 heptamerization domain fused with the 12 amino-acid PSMA-binding peptide WQPDTAHHWATL, self-assembled heptamer (protein)
# chain: MWQPDTAHHWATLGPQPQPKPQPKPEPEPQPQGGMPPRPLDVLNRSLKSPVIVRLKGGREFRGTLDGYDIHMNLVLLDAEEIQNGEVVRKVGSVVIRGDTVVFVSPAPGGEHHHHHH
# Target: T1, PSMA (Homo sapiens, UniProt Q04609)
# T1 construct: the extracellular domains of EGFR, HER2, and PSMA that are immobilized on the surface of CM5 biosensor chips; purchased R&D System, Minneapolis, Minn
# T1 sequence (Q04609 44-750 limits assumed): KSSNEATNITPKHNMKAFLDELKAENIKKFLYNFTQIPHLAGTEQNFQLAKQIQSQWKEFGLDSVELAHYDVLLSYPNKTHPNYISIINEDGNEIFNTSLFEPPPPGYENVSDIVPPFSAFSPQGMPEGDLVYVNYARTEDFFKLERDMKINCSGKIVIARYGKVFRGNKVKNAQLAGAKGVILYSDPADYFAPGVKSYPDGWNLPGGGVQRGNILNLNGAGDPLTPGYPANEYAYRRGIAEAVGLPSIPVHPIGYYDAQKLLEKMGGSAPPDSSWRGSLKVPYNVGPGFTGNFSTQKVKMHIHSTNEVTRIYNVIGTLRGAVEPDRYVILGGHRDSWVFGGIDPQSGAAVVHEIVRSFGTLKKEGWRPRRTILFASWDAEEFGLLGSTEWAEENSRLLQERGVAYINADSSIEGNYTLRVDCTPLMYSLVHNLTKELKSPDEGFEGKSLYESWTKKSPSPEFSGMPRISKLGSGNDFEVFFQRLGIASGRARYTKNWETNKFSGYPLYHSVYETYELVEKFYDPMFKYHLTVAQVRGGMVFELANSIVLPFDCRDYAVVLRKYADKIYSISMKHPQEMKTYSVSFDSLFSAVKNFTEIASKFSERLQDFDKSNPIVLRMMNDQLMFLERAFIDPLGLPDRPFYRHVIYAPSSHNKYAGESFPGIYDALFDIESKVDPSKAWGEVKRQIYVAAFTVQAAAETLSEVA
# Experiment: BIAcore surface plasmon resonance on immobilized PSMA
# Type: binding
# Settings: for binding to the PSMA receptor: PSMA monomer injected at 100 uM
# Procedure: BIAcore 2000 (BIAcore AB, Uppsala, Sweden) was used for surface plasmon resonance (SPR) analysis. Purified extracellular domain of recombinant human EGFR ECD-Fc, HER2 ECD-Fc, and PSMA were diluted in 10 mM sodium acetate pH 5.0 and immobilized on a CM5 sensor chip (GE healthcare) by amine coupling according to the manufacturer's instruction (about 2,500 resonance unit). Various concentrations of monomeric and heptameric targeting ligands were injected onto the flow cell in an HBS-P buffer (10 mM HEPES pH7.4, 150 mM NaCl, and 0.005% surfactant P20) at a flow rate of 20 μl/min or 30 μl/min. The dissociation constants (Kd) were calculated using BIAevaluation software (BIAcore) by fitting data on one to one Langmuir binding model.
# The BIAcore 2000 (BIAcore AB, Uppsala, Sweden) was used for surface plasmon resonance analysis. 1 μg of purified extracellular domain of recombinant human EGFR ECD-Fc, HER2 ECD-Fc, or PSMA (R&D System, Minneapolis, Minn.), was diluted in a buffer containing 10 mM sodium acetate pH 5.0 and immobilized on a CM5 sensor chip (GE healthcare, Piscataway, N.J.) by amine coupling according to the manufacturer's instruction (about 2,500 resonance units). Various concentrations of monomeric or heptameric ligands were injected onto the flow cell in an HBS-P buffer (10 mM HEPES pH 7.4, 150 mM NaCl, and 0.005% surfactant P20) at a flow rate of 20 μl/min. The dissociation equilibrium constant (KD), the association rate (Ka) and the dissociation rate (Kd) were calculated using the BIAevaluation software (BIAcore) by fitting the data on a one to one Langmuir binding model.
Molecule,binding to the PSMA receptor,"Kd (dissociation rate, one to one Langmuir model)"
B1,did not bind,
B2,bind marginally,1.09e-06 s⁻¹
